# In article PMC6875872 (The Journal of Physical Chemistry. B, 2019):
# Molecular target: the molecule itself
# Test: SEC + other: DLS + other: TEM
protein,measurement,value
"cowpea chlorotic mottle virus (CCMV) capsid protein (natural protein, UniProt P03601 1-190, looked up) MSTVGTGKLTRAQRRAAARKNKRNTRVVQPVIVEPIASGQGKAIKAWTGYSVSKWTASCAAAEAKVTSAITISLPNELSSERNKQLKVGRVLLWLGLLPSVSGTVKSCVTETQTTAAASFQVALAVADNSKDVVAAMYPEAFKGITLEQLTADLTIYLYSSAALTEGDVIVHLEVEHVRPTFDDSFTPVY",stoichiometry N,60
